Patent US10369229B2, “Methods and compositions for liposomal formulation of antigens and uses thereof” (priority 2009, dated 2019)

How the values were obtained:
[1] = Circular dichroism of liposomal lipopeptides (percent helicity); type: physicochemical; details: formulated in liposomes; estimated from θ222
Description: Liposomal lipopeptide samples were prepared as described above with the following modifications. Stock liposome solutions containing 5 mM carrier lipid and 500 μM lipopeptide were prepared in 10 mM phosphate, pH 7.4. To minimize light scattering, liposomes were prepared by bath sonication under argon until a size of less than 100 nm was obtained. For analysis, samples were diluted to 5 μM lipopeptide in 10 mM phosphate buffer containing 1 mM carrier lipid. Spectra were obtained with a J-715 spectrapolarimeter (Jasco, Easton, Md.) and data were processed using Jasco software. Data were acquired in continuous scanning mode with a pathlength of 1 cm, 0.1 nm interval and scan speed of 1 nm/s. Each spectrum represents an average of two scans. A background spectrum of “empty” liposomes in buffer was subtracted from each sample spectrum. Percent helicity was estimated from θ222 according to the method of Taylor and Kaiser.

[2] = tested on: N-MPR (2F5 epitope of HIV-1 gp41 MPR); details: BALB/C mice, Day 28 sera
Description: All animal procedures were conducted in accordance with the policies and approval of the appropriate Institutional Animal Care and Use Committee. 8 week-old female BALB/C mice (Jackson Laboratories, Bar Harbor, Me.) were housed in a pathogen-free barrier facility. Animals received subcutaneous immunizations in alternating hind hocks on Days 0 and 14. Each injection contained 50 μg lipopeptide, 25 μg MPL and 1 μmol lipid vehicle in 50 μL sterile phosphate-buffered saline. On Day 28 blood was collected from the submandibular vein for characterization of antibody responses. Cells were removed by centrifugation at 14,000 rpm for 15 min (5415C, Eppendorf, Westbury, N.Y.) and sera were stored at −80° C. until use.
ELISAs were developed to quantify binding of immune sera to peptides, lipids, and recombinant gp140. Peptide ELISAs were conducted using MPR peptides biotinylated as described above and captured on 96 well streptavidin-coated plates (#15120, Pierce, Rockford, Ill.). Assays were performed according to the manufacturer's instructions with modifications. […] The reaction was stopped with 0.5M H2SO4 and the yellow product was monitored at 450 nm (Optimax, Molecular Devices, Sunnyvale, Calif.). […] IgG1/IgG2a ratios were calculated as an average of optical density quotients measured at 3 dilutions after subtraction of background values. […]

Substance: N-MPR: peptide corresponding to the 2F5 epitope of HIV-1 gp41 MPR (SEQ ID NO: 2) (NEQELLELDKWASLWNGGK)
- helicity (helical content) [1]: 20.7%
- mice with detected anti-peptide response [2]: 2 of 5
